Laboratory results from US20170355766A1 (Xencor, published 2017).

T1: human FcγRIIb receptor protein (R&D Systems) (human, UniProt P31994 46-217)
T1 construct: Analyte injected over antibodies captured on a protein A/G chip (Biacore); also called CD32b
T1 sequence (looked up): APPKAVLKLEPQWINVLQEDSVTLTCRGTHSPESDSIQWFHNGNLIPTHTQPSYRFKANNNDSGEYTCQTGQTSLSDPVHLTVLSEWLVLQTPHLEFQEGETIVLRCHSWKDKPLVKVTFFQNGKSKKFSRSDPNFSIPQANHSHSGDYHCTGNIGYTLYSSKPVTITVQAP

T2: FcγRIIaR (human, UniProt P12318)
T2 construct: recombinant receptor protein with 6xHis and GST tags; also called R131 FcγRIIa
T2 sequence (receptor, looked up): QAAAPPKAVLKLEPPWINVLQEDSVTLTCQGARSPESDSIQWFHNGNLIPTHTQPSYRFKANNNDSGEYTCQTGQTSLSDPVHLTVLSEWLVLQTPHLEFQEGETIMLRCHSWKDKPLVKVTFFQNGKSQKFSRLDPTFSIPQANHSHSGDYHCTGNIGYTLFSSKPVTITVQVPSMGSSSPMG


Assays:
Assay in all cases: SPR (Biacore)
[1] = target: T1, human FcγRIIb receptor protein (R&D …)
[2] = target: T3, human FcγRI receptor protein (R&D Systems) (human, UniProt P12314 16-288)
T3 construct: also called CD64

[3] = target: T4, human V158 FcγRIIIa receptor protein (6xHis and GST tags) (human, UniProt P08637 17-208, limits assumed)
T4 construct: also called VIIIa

FcγRIIaR = target: T2, FcγRIIaR

T3 sequence (P12314 16-288 limits assumed): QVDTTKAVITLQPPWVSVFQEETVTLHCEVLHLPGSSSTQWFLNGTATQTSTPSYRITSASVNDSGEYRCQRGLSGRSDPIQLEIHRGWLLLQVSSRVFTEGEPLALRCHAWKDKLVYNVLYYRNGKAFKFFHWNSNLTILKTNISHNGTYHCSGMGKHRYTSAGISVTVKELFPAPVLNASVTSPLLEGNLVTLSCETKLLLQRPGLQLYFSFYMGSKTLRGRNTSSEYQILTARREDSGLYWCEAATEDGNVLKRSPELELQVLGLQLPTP
T4 sequence (P08637 17-208 F176V limits assumed): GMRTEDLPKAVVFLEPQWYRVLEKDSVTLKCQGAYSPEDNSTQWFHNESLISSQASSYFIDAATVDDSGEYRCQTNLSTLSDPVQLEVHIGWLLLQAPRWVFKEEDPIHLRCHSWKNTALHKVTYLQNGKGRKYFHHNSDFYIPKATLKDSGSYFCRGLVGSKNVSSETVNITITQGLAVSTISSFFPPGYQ

| Binder | Fold FcγRIIb [1] | Fold FcγRI [2] | binding result [3] | Fold FcγRIIaR (FcγRIIaR) | Fold FcγRIIIaV [3] |
| --- | --- | --- | --- | --- | --- |
| G237N/S267E (antibody, human IgG1, kappa, HuAM4G7 IgG1 Fc variant) heavy: not shown light: DIVMTQSPATLSLSPGERATLSCRSSKSLQNVNGNTYLYWFQQKPGQSPQLLIYRMSNLNSGVPDRFSGSGSGTEFTLTISSLEPEDFAVYYCMQHLEYPITFGAGTKLEIKRTVAAPSVFIFPPSDEQLKSGTASVVCLLNNFYPREAKVQWKVDNALQSGNSQESVTEQDSKDSTYSLSSTLTLSKADYEKHKVYACEVTHQGLSSPVTKSFNRGEC | 40.5 fold | 0.101 fold | no binding | 61.5 fold | – |
| S267A (antibody, human IgG1, kappa, HuAM4G7 IgG1 Fc variant) heavy: not shown light: DIVMTQSPATLSLSPGERATLSCRSSKSLQNVNGNTYLYWFQQKPGQSPQLLIYRMSNLNSGVPDRFSGSGSGTEFTLTISSLEPEDFAVYYCMQHLEYPITFGAGTKLEIKRTVAAPSVFIFPPSDEQLKSGTASVVCLLNNFYPREAKVQWKVDNALQSGNSQESVTEQDSKDSTYSLSSTLTLSKADYEKHKVYACEVTHQGLSSPVTKSFNRGEC | 3.6 fold | 1.15 fold | – | 4.29 fold | 0.952 fold |
| S267E/H268E/L328F (antibody, human IgG1, kappa, HuAM4G7 IgG1 Fc variant) heavy: EVQLVESGGGLVKPGGSLKLSCAASGYTFTSYVMHWVRQAPGKGLEWIGYINPYNDGTKYNEKFQGRVTISSDKSISTAYMELSSLRSEDTAMYYCARGTYYYGTRVFDYWGQGTLVTVSSASTKGPSVFPLAPSSKSTSGGTAALGCLVKDYFPEPVTVSWNSGALTSGVHTFPAVLQSSGLYSLSSVVTVPSSSLGTQTYICNVNHKPSNTKVDKKVEPKSCDKTHTCPPCPAPELLGGPSVFLFPPKPKDTLMISRTPEVTCVVVDVEEEDPEVKFNWYVDGVEVHNAKTKPREEQYNSTYRVVSVLTVLHQDWLNGKEYKCKVSNKAFPAPIEKTISKAKGQPREPQVYTLPPSREEMTKNQVSLTCLVKGFYPSDIAVEWESNGQPENNYKTTPPVLDSDGSFFLYSKLTVDKSRWQQGNVFSCSVMHEALHNHYTQKSLSLSPGK light: DIVMTQSPATLSLSPGERATLSCRSSKSLQNVNGNTYLYWFQQKPGQSPQLLIYRMSNLNSGVPDRFSGSGSGTEFTLTISSLEPEDFAVYYCMQHLEYPITFGAGTKLEIKRTVAAPSVFIFPPSDEQLKSGTASVVCLLNNFYPREAKVQWKVDNALQSGNSQESVTEQDSKDSTYSLSSTLTLSKADYEKHKVYACEVTHQGLSSPVTKSFNRGEC | 344 fold | 0.991 fold | – | 253 fold | – |
| S239N (antibody, human IgG1, kappa, HuAM4G7 IgG1 Fc variant) heavy: not shown light: DIVMTQSPATLSLSPGERATLSCRSSKSLQNVNGNTYLYWFQQKPGQSPQLLIYRMSNLNSGVPDRFSGSGSGTEFTLTISSLEPEDFAVYYCMQHLEYPITFGAGTKLEIKRTVAAPSVFIFPPSDEQLKSGTASVVCLLNNFYPREAKVQWKVDNALQSGNSQESVTEQDSKDSTYSLSSTLTLSKADYEKHKVYACEVTHQGLSSPVTKSFNRGEC | 1.45 fold | – | – | 0.867 fold | – |
| S267E/L328H (antibody, human IgG1, kappa, HuAM4G7 IgG1 Fc variant) heavy: not shown light: DIVMTQSPATLSLSPGERATLSCRSSKSLQNVNGNTYLYWFQQKPGQSPQLLIYRMSNLNSGVPDRFSGSGSGTEFTLTISSLEPEDFAVYYCMQHLEYPITFGAGTKLEIKRTVAAPSVFIFPPSDEQLKSGTASVVCLLNNFYPREAKVQWKVDNALQSGNSQESVTEQDSKDSTYSLSSTLTLSKADYEKHKVYACEVTHQGLSSPVTKSFNRGEC | 5.17 fold | – | – | 4.64 fold | – |
| S267E/N325L (antibody, human IgG1, kappa, HuAM4G7 IgG1 Fc variant) heavy: not shown light: DIVMTQSPATLSLSPGERATLSCRSSKSLQNVNGNTYLYWFQQKPGQSPQLLIYRMSNLNSGVPDRFSGSGSGTEFTLTISSLEPEDFAVYYCMQHLEYPITFGAGTKLEIKRTVAAPSVFIFPPSDEQLKSGTASVVCLLNNFYPREAKVQWKVDNALQSGNSQESVTEQDSKDSTYSLSSTLTLSKADYEKHKVYACEVTHQGLSSPVTKSFNRGEC | 31.5 fold | – | – | 41.5 fold | – |
| S267E/A327D (antibody, human IgG1, kappa, HuAM4G7 IgG1 Fc variant) heavy: not shown light: DIVMTQSPATLSLSPGERATLSCRSSKSLQNVNGNTYLYWFQQKPGQSPQLLIYRMSNLNSGVPDRFSGSGSGTEFTLTISSLEPEDFAVYYCMQHLEYPITFGAGTKLEIKRTVAAPSVFIFPPSDEQLKSGTASVVCLLNNFYPREAKVQWKVDNALQSGNSQESVTEQDSKDSTYSLSSTLTLSKADYEKHKVYACEVTHQGLSSPVTKSFNRGEC | 21.2 fold | 1.66 fold | – | 16.7 fold | – |
| L234D/S267E (antibody, human IgG1, kappa, HuAM4G7 IgG1 Fc variant) heavy: not shown light: DIVMTQSPATLSLSPGERATLSCRSSKSLQNVNGNTYLYWFQQKPGQSPQLLIYRMSNLNSGVPDRFSGSGSGTEFTLTISSLEPEDFAVYYCMQHLEYPITFGAGTKLEIKRTVAAPSVFIFPPSDEQLKSGTASVVCLLNNFYPREAKVQWKVDNALQSGNSQESVTEQDSKDSTYSLSSTLTLSKADYEKHKVYACEVTHQGLSSPVTKSFNRGEC | 21.7 fold | 0.0286 fold | – | 12.7 fold | 0.14 fold |
| S298D (antibody, human IgG1, kappa, HuAM4G7 IgG1 Fc variant) heavy: not shown light: DIVMTQSPATLSLSPGERATLSCRSSKSLQNVNGNTYLYWFQQKPGQSPQLLIYRMSNLNSGVPDRFSGSGSGTEFTLTISSLEPEDFAVYYCMQHLEYPITFGAGTKLEIKRTVAAPSVFIFPPSDEQLKSGTASVVCLLNNFYPREAKVQWKVDNALQSGNSQESVTEQDSKDSTYSLSSTLTLSKADYEKHKVYACEVTHQGLSSPVTKSFNRGEC | 0.797 fold | – | – | 1.45 fold | – |

Further lines, results first:

| Fold FcγRIIb [1] | Fold FcγRI [2] | binding result [3] | Fold FcγRIIaR (FcγRIIaR) | Fold FcγRIIIaV [3] | Binder |
| --- | --- | --- | --- | --- | --- |
| 428 fold | 1.45 fold | – | 416 fold | 0.216 fold | S239D/S267E/L328F (antibody, human IgG1, kappa, HuAM4G7 IgG1 Fc variant) heavy: EVQLVESGGGLVKPGGSLKLSCAASGYTFTSYVMHWVRQAPGKGLEWIGYINPYNDGTKYNEKFQGRVTISSDKSISTAYMELSSLRSEDTAMYYCARGTYYYGTRVFDYWGQGTLVTVSSASTKGPSVFPLAPSSKSTSGGTAALGCLVKDYFPEPVTVSWNSGALTSGVHTFPAVLQSSGLYSLSSVVTVPSSSLGTQTYICNVNHKPSNTKVDKKVEPKSCDKTHTCPPCPAPELLGGPDVFLFPPKPKDTLMISRTPEVTCVVVDVEHEDPEVKFNWYVDGVEVHNAKTKPREEQYNSTYRVVSVLTVLHQDWLNGKEYKCKVSNKAFPAPIEKTISKAKGQPREPQVYTLPPSREEMTKNQVSLTCLVKGFYPSDIAVEWESNGQPENNYKTTPPVLDSDGSFFLYSKLTVDKSRWQQGNVFSCSVMHEALHNHYTQKSLSLSPGK light: DIVMTQSPATLSLSPGERATLSCRSSKSLQNVNGNTYLYWFQQKPGQSPQLLIYRMSNLNSGVPDRFSGSGSGTEFTLTISSLEPEDFAVYYCMQHLEYPITFGAGTKLEIKRTVAAPSVFIFPPSDEQLKSGTASVVCLLNNFYPREAKVQWKVDNALQSGNSQESVTEQDSKDSTYSLSSTLTLSKADYEKHKVYACEVTHQGLSSPVTKSFNRGEC |
| 53.4 fold | – | – | 74 fold | – | S267E/L328I (antibody, human IgG1, kappa, HuAM4G7 IgG1 Fc variant) heavy: not shown light: DIVMTQSPATLSLSPGERATLSCRSSKSLQNVNGNTYLYWFQQKPGQSPQLLIYRMSNLNSGVPDRFSGSGSGTEFTLTISSLEPEDFAVYYCMQHLEYPITFGAGTKLEIKRTVAAPSVFIFPPSDEQLKSGTASVVCLLNNFYPREAKVQWKVDNALQSGNSQESVTEQDSKDSTYSLSSTLTLSKADYEKHKVYACEVTHQGLSSPVTKSFNRGEC |
| 4.45 fold | 2.11 fold | – | 8.99 fold | 1.51 fold | S267D (antibody, human IgG1, kappa, HuAM4G7 IgG1 Fc variant) heavy: not shown light: DIVMTQSPATLSLSPGERATLSCRSSKSLQNVNGNTYLYWFQQKPGQSPQLLIYRMSNLNSGVPDRFSGSGSGTEFTLTISSLEPEDFAVYYCMQHLEYPITFGAGTKLEIKRTVAAPSVFIFPPSDEQLKSGTASVVCLLNNFYPREAKVQWKVDNALQSGNSQESVTEQDSKDSTYSLSSTLTLSKADYEKHKVYACEVTHQGLSSPVTKSFNRGEC |
| 0.803 fold | 1.65 fold | – | 0.688 fold | 3.49 fold | S239E (antibody, human IgG1, kappa, HuAM4G7 IgG1 Fc variant) heavy: not shown light: DIVMTQSPATLSLSPGERATLSCRSSKSLQNVNGNTYLYWFQQKPGQSPQLLIYRMSNLNSGVPDRFSGSGSGTEFTLTISSLEPEDFAVYYCMQHLEYPITFGAGTKLEIKRTVAAPSVFIFPPSDEQLKSGTASVVCLLNNFYPREAKVQWKVDNALQSGNSQESVTEQDSKDSTYSLSSTLTLSKADYEKHKVYACEVTHQGLSSPVTKSFNRGEC |
| 0.729 fold | – | – | 0.853 fold | – | S239Q (antibody, human IgG1, kappa, HuAM4G7 IgG1 Fc variant) heavy: not shown light: DIVMTQSPATLSLSPGERATLSCRSSKSLQNVNGNTYLYWFQQKPGQSPQLLIYRMSNLNSGVPDRFSGSGSGTEFTLTISSLEPEDFAVYYCMQHLEYPITFGAGTKLEIKRTVAAPSVFIFPPSDEQLKSGTASVVCLLNNFYPREAKVQWKVDNALQSGNSQESVTEQDSKDSTYSLSSTLTLSKADYEKHKVYACEVTHQGLSSPVTKSFNRGEC |
| 0.147 fold | – | – | 0.704 fold | – | V266D (antibody, human IgG1, kappa, HuAM4G7 IgG1 Fc variant) heavy: not shown light: DIVMTQSPATLSLSPGERATLSCRSSKSLQNVNGNTYLYWFQQKPGQSPQLLIYRMSNLNSGVPDRFSGSGSGTEFTLTISSLEPEDFAVYYCMQHLEYPITFGAGTKLEIKRTVAAPSVFIFPPSDEQLKSGTASVVCLLNNFYPREAKVQWKVDNALQSGNSQESVTEQDSKDSTYSLSSTLTLSKADYEKHKVYACEVTHQGLSSPVTKSFNRGEC |
